This is an account of results in publication PMC4233170.

The target of this test is FLAG-tagged Rrn3 purified from infected Sf9 cells (not stated (human or mouse cDNA cloned)) (UniProt Q9NYV6).
UniProt Q9NYV6, sequence (Q9NYV6 whole entry): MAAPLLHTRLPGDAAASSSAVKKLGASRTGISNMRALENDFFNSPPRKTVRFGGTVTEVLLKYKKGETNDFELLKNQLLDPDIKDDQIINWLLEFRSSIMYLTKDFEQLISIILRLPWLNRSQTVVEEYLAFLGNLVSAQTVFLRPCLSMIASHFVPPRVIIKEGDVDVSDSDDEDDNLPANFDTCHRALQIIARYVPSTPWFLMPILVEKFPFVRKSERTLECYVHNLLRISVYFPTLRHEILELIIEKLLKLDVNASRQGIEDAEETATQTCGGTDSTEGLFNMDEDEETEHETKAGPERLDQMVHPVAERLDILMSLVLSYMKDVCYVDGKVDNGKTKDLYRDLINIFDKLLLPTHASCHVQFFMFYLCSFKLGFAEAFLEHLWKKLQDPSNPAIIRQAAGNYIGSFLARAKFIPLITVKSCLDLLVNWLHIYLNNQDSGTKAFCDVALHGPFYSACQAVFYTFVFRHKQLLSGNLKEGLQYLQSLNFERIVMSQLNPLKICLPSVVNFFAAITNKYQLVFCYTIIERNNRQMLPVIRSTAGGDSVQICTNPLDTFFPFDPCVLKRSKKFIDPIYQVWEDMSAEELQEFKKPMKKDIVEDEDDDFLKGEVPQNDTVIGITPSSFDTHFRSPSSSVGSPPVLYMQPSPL

With GGGRKKRRQRRRNKVSSSHIGCLVHGCFNASIPK [TAT-22mer: HIV TAT based cell penetrating peptide coupled to the 22mer of rpa43], the labelling of the 47/45S pre-rRNA precursor in N1S1 cells treated with TAT-22mer stood at 70 % inhibition.
